In this experiment the target is HR2 peptide of the SARS-CoV-2 spike (H1159-K1211), His-SUMO removed (SARS-CoV-2) (UniProt P0DTC2). Nature of the experiment: crystal structure.

For orientation: stoichiometry N means the number of molecules, sites or subunits per partner or assembly. Regarding “HR2 peptide of the SARS-CoV-2 spike (H1159-K1211), His-SUMO removed (from UniProt P0DTC2 1159-1211) (domain or fragment)”, the stoichiometry N was 3.
